The values that follow come from patent US20200255501A1 (VIB VZW, published 2020).

Sequences and labels used below:
B1: anti-Sap Nanobody688 (VHH)
VHH: QVQLVESGGGLVRAGGSLRLSCAASGSIFRINDMGWYRQAPGKQRELVAAITSGGSTNYADSVKGRFTISRDNAKNTVYLQMNSLKPEDTAVYYCNADFSTVRERRYDYWGQGTQVTVSS
B2: anti-Sap Nanobody683 (VHH)
VHH: QVQLVESGGGLVQAGGSLRLSCAASGSIFRINDMGWYRQAPGKQRELVAAITSGGSTNYADSVKGRFTISRDNAKKMVYLQMNSLKPEDTAVYYCHADFSTGWAPYDYWGQGTQVTVSS
B3: anti-Sap Nanobody707 (VHH)
VHH: B2 VHH with D33A, P41S, S56N, K76N, M77T, H96N, S100G, W103G, A104R
B4: anti-Sap Nanobody702 (VHH)
VHH: QVQLVESGGGLVQAGGSLRLSCAASGSIFRVNDMGWYRQAPGKQRELVAIIITGGSTNYADSVKGRFTISRDNAKNTVYLQMNSLRPEDTAVYYCNADFGTGPGRYDYWGQGTQVTVSS
B5: anti-Sap Nanobody704 (VHH)
VHH: QVQLVESGGGLVQPGGSLRLSCAASGFTFSNFAIAWVRQAPGKGLEWVSDINSGGTDTSYAAAVKGRFTISRDNAKNTLYLQMNNLKPEDTAVYYCAKSAQSYFHSTFDHRGQGTQVTVSS

Substitutions are numbered along the chain they refer to.

For the first experiment, the target named is T1, B. anthracis Sap S-Layer assembly domain (Sap^AD; residues 216-814), C-terminal His6 (Bacillus anthracis, UniProt P49051 216-814). The experiment can be described thus: ITC, Nb titrated into fresh monomeric Sapc, 30 °C.
Molecule B1 registered a Kd of 0.12 µM. On the same count and under the same terms, under B2 stands 0.035 µM.

A further experiment addresses T1, B. anthracis Sap S-Layer assembly …. Nature of the experiment: isothermal titration calorimetry, […].
As for B3, the Kd was found to be 0.103 µM. Same read-out and setting: under B4 stands 0.0725 µM; under B2, 0.0358 µM. B5 returned a Kd of 0.183 µM.
